# Positions count from the first letter of the chain named.
# B1: M14 (antibody, human IgG1, kappa, V domains shown)
# VH: QVQLVESGGGLVKPGGSLRLSCAASGFTFSDYYMSWIRQAPGKGLEWVSYISSSGTTKYYADSVKGRFTISRDNAKNSLYLQMNSLRAEDTAVYYCVRENLGYCSGGSCFYYYYMDVWGKGTTVTVSS
# VL: not shown
# B2: M23 (antibody, human IgG1, kappa, V domains shown)
# VH: B1 VH with L101I, S105T, S108N
# VL: not shown
# B3: M16 (antibody, human IgG1, kappa, V domains shown)
# VH: B1 VH
# VL: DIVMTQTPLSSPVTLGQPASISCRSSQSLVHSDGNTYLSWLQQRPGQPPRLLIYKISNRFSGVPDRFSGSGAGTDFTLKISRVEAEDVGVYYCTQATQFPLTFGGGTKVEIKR
# notes: Human IgG
# B4: M7 (antibody, human IgG1, kappa, V domains shown)
# VH: EVQLVESGGGLVQPGGSLRLSCAASGFTVSSNYMSWVRQAPGKGLEWVSVIYSGGSTYYADSVKGRFTISRDNSKNTLYLQMNSLRAEDTAVYYCARGSTNTYYYDSSGHPWGQGTMVTVSS
# VL: DIVMTQSPLSLPATPGEPASISCRSSQSLLHSNGYTYLDWYLQKPGQSPQVLIYLASNRASGVPDRFSGSGSGTNFTLKISRVEAEDVGLFYCMQALQTPQTFGQGTKLEIKR
# notes: Human IgG
# B5: M3 (antibody, human IgG1, lambda, V domains shown)
# VH: QLQLQESGPGLVKPSETLSLTCTVSGGSISSSSYYWGWIRQPPGKGLEWIGSIYYSGSTHYNPSLKSRVTISVDTSKNQFSLKLRSVTAADTAVYYCARGVVEVRGNHYYYYYMDVWGKGTTVTVSS
# VL: QSVLTQPPSVSGAPGQRVTISCTGSSSNIGAGYDVHWYQQLPGTAPKLLIYGNSYRPSGVPDRFSGSKSGTSASLAITGLQAEDEADYYCQSYDSSLSGSGVFGGGTKLTVLG
# notes: Human IgG
# B6: M22 (antibody, human IgG1, kappa, V domains shown)
# VH: EVQLVESGGGLVQPGGSLRLSCAASGFTVSSNYMSWVRQAPGKGLEWVSVIYSGGTTYYADSVKGRFTISRHNSKNTLYLQMNSLRAEDTAVYYCARDHDPDYGGYYMDVWGKGTTVTVSS
# VL: DVVMTQSPLSLPVTLGQPASISCRSSQSLVYSDGNTYLNWFQQRPGQSPRRLIYQVSNRDSGVPDRFSGSGSGTDFTLKIGRVEAEDVGVYFCMQGTHWPWTFGQGTKVEIKR
# notes: Human IgG
# B7: M21 (antibody, human IgG1, kappa, V domains shown)
# VH: EVQLVESGGGLVQPGGSLRLSCAASGFTVSSNYMSWVRQAPGKGLEWVSVIYSGGSTYYADSVKGRFTISRDNSKNTLYLQMNSLRAEDTAVYYCARDQEHYFDGSGYYVDYWGQGTLVTVSS
# VL: B6 VL
# notes: Human IgG
# B8: M20 (antibody, human IgG1, kappa, V domains shown)
# VH: EVQLVESGGGLVQPGGSLRLSCAASGFTFSSYWMHWVRQAPGKGLVWVSHINSDGSSTSYADSVKGRFTISRDNAKNTLYLQMNSLRAEDTAVYYCARELADWGQGTLVTVSS
# VL: B6 VL
# notes: Human IgG
# Target: T1, MUC1 on MUC1+ human cancer cell lines and tumor tissue (abnormal, e.g. hypoglycosylated, tumor MUC1) (human, UniProt P15941 24-1255)
# T1 construct: the MUC1 of each cell line or tissue (number of repeats, glycoform) is not specified; The cell line or tissue is named under assay; also called MUC1 on HPAF, MCF-7, BT-20, SKBR-3, PANC-1, MS+MUC1 cells; MUC1 on colon and pancreatic tumor samples
# Assay: immunohistochemistry, colon tissue microarray, malignant samples
# Protocol: (§1) Secondary antibodies alone were used as negative controls. Following staining, the microarrays were analyzed using CELLPROFILER cell image analysis software (Broad Institute).
row,Binder,MUC1+ samples stained
1,B1,56 of 114 MUC1+ malignant samples
2,B2,76 of 114 MUC1+ malignant samples

# Target: T1, MUC1 on MUC1+ human cancer cell lines …
# Assay: flow cytometry, MS+MUC1 cells
# Protocol: (§2) The antibodies were further characterized for their surface binding to MUC1-expressing human cancer cell lines HPAF (pancreatic), MCF-7 (breast), BT-20 (breast), PANC-1 (pancreatic), and MS (breast) cell lines that express very low levels of MUC1 and was transfected with MUC1 cDNA (MS+MUC1). MCF-10A, a human nontransformed mammary epithelial cell line that expresses normal MUC1, was used as a predicted negative control for tumor MUC1 (hypoglycosylated MUC1)-specific staining Cells were grown attached to tissue culture plates, trypsinized, washed with PBS and 1% FBS and stained with each antibody for 30 minutes on ice. Cells were then washed 2 times with PBS and 1% FBS and stained with appropriate allophycocyanin (APC)-labeled secondary antibodies. Cells were washed again 2 times with PBS and 1% FBS and then analyzed by flow cytometry. Thirty-thousand events were collected for each sample and gated for viability by forward and side scatter. Live cells were then gated for APC+ staining as compared to an appropriate secondary antibody only control.
row,Binder,percentage of APC+ stained cells [%]
1,B1,28.4
2,B3,7.03
3,B2,33.8
4,B4,22.4
5,B5,22
6,B6,5.78
7,B7,4.41
8,B8,6.32

# Target: T1, MUC1 on MUC1+ human cancer cell lines …
# Assay: flow cytometry, MCF-7 cells
# Protocol: as §2
row,Binder,percentage of APC+ stained cells [%]
1,B1,20.8
2,B3,18.3
3,B2,16.1
4,B4,83.5
5,B5,79.6
6,B6,5.68
7,B7,5
8,B8,29.2

# Target: T1, MUC1 on MUC1+ human cancer cell lines …
# Assay: flow cytometry, BT20 cells
# Protocol: as §2
row,Binder,percentage of APC+ stained cells [%]
1,B1,22.9
2,B3,5.17
3,B2,23
4,B4,12.2
5,B5,14.8
6,B6,3.39
7,B7,4.06
8,B8,9.86

# Target: T1, MUC1 on MUC1+ human cancer cell lines …
# Assay: flow cytometry, SKBR-3 cells
# Protocol: as §2
row,Binder,percentage of APC+ stained cells [%]
1,B1,22.3
2,B3,2.68
3,B2,18.6
4,B4,1.65
5,B5,5.71
6,B6,1.34
7,B7,0.99
8,B8,1.91

# Target: T1, MUC1 on MUC1+ human cancer cell lines …
# Assay: immunohistochemistry, colon tissue microarray, benign samples
# Protocol: as §1
row,Binder,MUC1+ samples stained
1,B1,2 of 3 MUC1+ benign samples
2,B2,2 of 3 MUC1+ benign samples

# Target: T1, MUC1 on MUC1+ human cancer cell lines …
# Assay: flow cytometry, PANC-1 cells
# Protocol: as §2
row,Binder,percentage of APC+ stained cells [%]
1,B1,55.2
2,B3,0.76
3,B2,45.1
4,B4,0.41
5,B5,1.55
6,B6,0.7
7,B7,0.75
8,B8,0.39

# Target: T1, MUC1 on MUC1+ human cancer cell lines …
# Assay: flow cytometry, HPAF cells
# Protocol: as §2
row,Binder,percentage of APC+ stained cells [%]
1,B1,6.81
2,B3,5.93
3,B2,5.71
4,B4,51.5
5,B5,42.1
6,B6,2.99
7,B7,2.6
8,B8,4.36
